Experimental data as given in the supplement of paper PMC10567573.

B1: MLH1 (parent)
chain: YAHQMVRTDSREQKLDAFLQPLSK

Variants of: B1
Assay: protein stability index of a GFP-peptide fusion (GPS, HEK-293T) (PSI 1-6); higher = more stable
Settings: c terminus: a fixed tail appended
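Also: lentivirally expressed fusions sorted by FACS into six bins by GFP to DsRed ratio, PSI derived from sequencing read proportions per bin multiplied by bin number.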

Row | Variant | protein stability index
1 | YAHQMVRTDSREQKLDAFLQPLEK [S23E] | 2.86
2 | YAHQMVRTDSREFKLDAFLQPLSK [Q13F] | 1.72
3 | YAHQMVRTDSREHKLDAFLQPLSK [Q13H] | 2.04
4 | YAHQMVRTDSREWKLDAFLQPLSK [Q13W] | 2.18
5 | YAHQMVRTDSREMKLDAFLQPLSK [Q13M] | 2.06
6 | YAHQMVRTDSRETKLDAFLQPLSK [Q13T] | 2.7
7 | YAHQMVRTDSREIKLDAFLQPLSK [Q13I] | 1.94
8 | YAHQMVRTDSRECKLDAFLQPLSK [Q13C] | 1.54
9 | YAHQMVRTDSREGKLDAFLQPLSK [Q13G] | 2.32
10 | YAHQMVRTDSREQKLDAFLLPLSK [Q20L] | 2.53
11 | YAHQMVRTDSREQKLDAFLDPLSK [Q20D] | 3.39
12 | YAHQMVRTDSREQKLDAFLEPLSK [Q20E] | 2.51
13 | YAHQMVRTDSREQKLDAFLVPLSK [Q20V] | 2.09
14 | YAHQMVRTDSREQKLDAFLIPLSK [Q20I] | 2.07
15 | YAHQMVRTDSREQKLDAFLCPLSK [Q20C] | 1.98
16 | YAHQMVRTDSREQKLDAFLMPLSK [Q20M] | 2.45
17 | YAHQMVRTDSREQKLDAFLRPLSK [Q20R] | 2.5
18 | YAHQMVRTDSREQKLDAFLFPLSK [Q20F] | 1.91
19 | YAHQMVRTDSREQKLDAFLAPLSK [Q20A] | 2.49
20 | YAHQMVRTDSREQKLLAFLQPLSK [D16L] | 1.62
21 | YAHQMVRTDSREQKLYAFLQPLSK [D16Y] | 1.57
22 | YAHQMVRTDSREQKLCAFLQPLSK [D16C] | 1.99
23 | YAHQMVRTDSREQKLWAFLQPLSK [D16W] | 3.5
24 | YAHQMVRTDSREQKLVAFLQPLSK [D16V] | 1.66

Row | Variant | protein stability index
25 | YAHQMVRTDSREQKLNAFLQPLSK [D16N] | 1.91
26 | YAHQMVRTDSREQKLGAFLQPLSK [D16G] | 2.08
27 | YAHQMVRTDSREQKLIAFLQPLSK [D16I] | 2.16
28 | YAHQMVRTDSREQKLDKFLQPLSK [A17K] | 3.29
29 | YAHQMVRTDSREQKLDLFLQPLSK [A17L] | 1.85
30 | YAHQMVRTDSREQKLDEFLQPLSK [A17E] | 2.98
31 | YAHQMVRTDSREQKLDDFLQPLSK [A17D] | 3
32 | YAHQMVRTDSREQKLDIFLQPLSK [A17I] | 2.69
33 | YAHQMVRTDSREQKLDRFLQPLSK [A17R] | 2.66
34 | YAHQMVRTDSREQKLDFFLQPLSK [A17F] | 1.88
35 | YAHQMVRTDSREQKLDNFLQPLSK [A17N] | 3.19
36 | YAHQMVRTDSREQKLDWFLQPLSK [A17W] | 2.19
37 | YAHQMVRTDGREQKLDAFLQPLSK [S10G] | 2.71
38 | YAHQMVRTDWREQKLDAFLQPLSK [S10W] | 1.66
39 | YAHQMVRTDTREQKLDAFLQPLSK [S10T] | 2.39
40 | YAHQMVRTDQREQKLDAFLQPLSK [S10Q] | 2.78
41 | YAHQMVRTDAREQKLDAFLQPLSK [S10A] | 2.97
42 | YAHQMVRPDSREQKLDAFLQPLSK [T8P] | 2.19
43 | YAHQMVRHDSREQKLDAFLQPLSK [T8H] | 2.04
44 | YAHQMVRLDSREQKLDAFLQPLSK [T8L] | 2.43
45 | YAHQMVRDDSREQKLDAFLQPLSK [T8D] | 2.78
46 | YAHQMVRSDSREQKLDAFLQPLSK [T8S] | 2.71
47 | YAHQMVRCDSREQKLDAFLQPLSK [T8C] | 2.27
48 | YAHQMVRIDSREQKLDAFLQPLSK [T8I] | 2.49

Row | Variant | protein stability index
49 | YAHQMVRGDSREQKLDAFLQPLSK [T8G] | 2.69
50 | YAHQMVRTDSREQKLDAFLQPLSL [K24L] | 1.85
51 | YAHQMVRTDSREQKLDAFLQPLSC [K24C] | 2.29
52 | YAHQMVRTDSREQKLDAFLQPLSD [K24D] | 3.26
53 | YAHQMVRTDSREQKLDAFLQPLSF [K24F] | 1.78
54 | YAHQMVRTDSREQKLDAFLQPLSW [K24W] | 2.16
55 | YAHQMVRTDSREQKLDAFLQPLSE [K24E] | 3.28
56 | YAHQHVRTDSREQKLDAFLQPLSK [M5H] | 2.53
57 | YAHQEVRTDSREQKLDAFLQPLSK [M5E] | 3.31
58 | YAHQYVRTDSREQKLDAFLQPLSK [M5Y] | 2.43
59 | YAHQKVRTDSREQKLDAFLQPLSK [M5K] | 2.98
60 | YAHQGVRTDSREQKLDAFLQPLSK [M5G] | 2.63
61 | YAHQRVRTDSREQKLDAFLQPLSK [M5R] | 2.59
62 | YAHQFVRTDSREQKLDAFLQPLSK [M5F] | 2.34
63 | YAHQLVRTDSREQKLDAFLQPLSK [M5L] | 2.49
64 | YAHQDVRTDSREQKLDAFLQPLSK [M5D] | 3.34
65 | YAHQNVRTDSREQKLDAFLQPLSK [M5N] | 3.16
66 | YAHQMVRTASREQKLDAFLQPLSK [D9A] | 2.18
67 | YAHQMVRTNSREQKLDAFLQPLSK [D9N] | 2.53
68 | YAHQMVRTHSREQKLDAFLQPLSK [D9H] | 2.75
69 | YAHQMVRTRSREQKLDAFLQPLSK [D9R] | 2.54
70 | YAHQMVRTSSREQKLDAFLQPLSK [D9S] | 2.54
71 | YAHQMVRTYSREQKLDAFLQPLSK [D9Y] | 1.98
72 | YAHQMVRTCSREQKLDAFLQPLSK [D9C] | 2.46

Row | Variant | protein stability index
73 | YAHQMVRTLSREQKLDAFLQPLSK [D9L] | 2.15
74 | YAHMMVRTDSREQKLDAFLQPLSK [Q4M] | 2.51
75 | YAHTMVRTDSREQKLDAFLQPLSK [Q4T] | 2.16
76 | YAHAMVRTDSREQKLDAFLQPLSK [Q4A] | 2.1
77 | YAHWMVRTDSREQKLDAFLQPLSK [Q4W] | 2.7
78 | YAHSMVRTDSREQKLDAFLQPLSK [Q4S] | 2.42
79 | YAHHMVRTDSREQKLDAFLQPLSK [Q4H] | 2.04
80 | YAHQMVWTDSREQKLDAFLQPLSK [R7W] | 2.32
81 | YAHQMVKTDSREQKLDAFLQPLSK [R7K] | 2.74
82 | YAHQMVFTDSREQKLDAFLQPLSK [R7F] | 2.18
83 | YAHQMVGTDSREQKLDAFLQPLSK [R7G] | 1.96
84 | YAHQMVETDSREQKLDAFLQPLSK [R7E] | 3.17
85 | YAHQMVPTDSREQKLDAFLQPLSK [R7P] | 3.06
86 | YAHQMVRTDSREQKLDADLQPLSK [F18D] | 3.79
87 | YAHQMVRTDSREQKLDAWLQPLSK [F18W] | 1.85
88 | YAHQMVRTDSREQKLDALLQPLSK [F18L] | 2.4
89 | YAHQMVRTDSREQKLDAHLQPLSK [F18H] | 3.29
90 | YAHQMVRTDSREQKLDAYLQPLSK [F18Y] | 2.27
91 | YAHQMVRTDSREQKLDAVLQPLSK [F18V] | 3.15
92 | YAHQMVRTDSREQKLDACLQPLSK [F18C] | 3.22
93 | YAHQMVRTDSREQKLDANLQPLSK [F18N] | 3.15
94 | YAHQMVRTDSREQKLDATLQPLSK [F18T] | 3.36
